Assay [1] concerns the target CD200R (Mus musculus) (UniProt Q9ES57). The settings on record: cited from earlier work.
The target is the same in assay [2]. To be noted: cited from earlier work. This is another data set of the same source.
The target in assay [3] is mouse CD200 (residues 1-232) CD4-Bio, mutant Q27K (mouse) (UniProt O54901). The assay is described as follows: SPR; BIAcore 3000, 25°C, HBS; wild-type and mutant CD200 CD4-Bio and CD4 control (about 650 RU each) held by OX68 mAb amine coupled to a CM5 chip; serial dilutions of soluble CD200R injected (KD from equilibrium binding), mutants tested with CD200R at 0.5 μM and given as percent of wild type. On the technique in general: In SPR one partner is held on a chip, and binding of the other changes the refractive index at the surface.

For assay [4], the target named is mouse CD200 extracellular region (residues 1-232) tagged with rat CD4 domains 3 and 4 and a biotinylation site, wild type (mouse) (UniProt O54901). The description is as above.
The target of assay [5] is T1, mouse CD200RLa (residues 1-237) CD4-Bio, triple mutant N63K, K66T, and L114F (mouse).
T1 chain: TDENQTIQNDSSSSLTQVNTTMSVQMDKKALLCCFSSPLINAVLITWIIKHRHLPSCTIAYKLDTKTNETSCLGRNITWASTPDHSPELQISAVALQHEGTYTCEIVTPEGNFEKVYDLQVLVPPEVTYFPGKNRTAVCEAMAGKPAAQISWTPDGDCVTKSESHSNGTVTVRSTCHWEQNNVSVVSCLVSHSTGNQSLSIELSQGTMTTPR
The assay is described as follows: SPR.

Assay [6] concerns the target T2, mouse CD200R (residues 1-232) CD4-Bio chimeric protein (mouse, UniProt Q9ES57 26-232).
T2 chain: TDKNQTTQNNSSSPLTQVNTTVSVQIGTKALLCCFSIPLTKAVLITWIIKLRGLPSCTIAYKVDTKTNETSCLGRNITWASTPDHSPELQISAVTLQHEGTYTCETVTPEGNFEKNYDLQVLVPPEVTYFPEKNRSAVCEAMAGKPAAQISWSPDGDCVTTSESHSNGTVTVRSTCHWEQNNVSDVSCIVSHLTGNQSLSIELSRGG
The assay is described as follows: SPR.

The target in assay [7] is T3, mouse CD200RLa (residues 1-237) CD4-Bio chimeric protein, wild type (mouse).
T3 chain: T1 chain with K62N, T65K, F113L
In words: SPR.

In assay [8] the target is mouse CD200RLa (residues 1-237) CD4-Bio, mutant L114F (mouse, UniProt Q6XJV4 26-237, L114F). In words: SPR; BIAcore 3000, 25°C; CD200R and wild-type and mutant CD200RLa CD4-Bio held by OX68 on a CM5 chip; increasing concentrations of CD200 injected; KDs by nonlinear curve fitting. To be noted: one partner purified.
Assay [9] deals with mouse CD200RLa (residues 1-237) CD4-Bio, double mutant N63K K66T (mouse). Described as above.

Consider 4 molecules from publication PMC3664923, “Structures of CD200/CD200 Receptor Family and Implications for Topology, Regulation, and Evolution” (Structure(London, England:1993), 2013).

Substitutions are numbered along the chain they refer to. “And” between values parts separate entries of the source, which are not always exact repeats. Equal values may be shown once. Read-outs that look alike come from different tables or passages of the source.

By Kd is commonly meant the constant that tells how readily two partners part at equilibrium. Take CD200 (from UniProt O54901): in the assay with CD200R (Mus musculus) [1], the dissociation constant Kd is 4 µM.
For the molecule CD200 (from UniProt P41217), the Kd with CD200R (Mus musculus) [2] is 7 µM.
In assay [3], “mouse CD200R extracellular region with C-terminal polyhistidine tag (receptor)” showed a percent of wild-type binding response of 150%. The molecule also showed a dissociation constant Kd in assay [4] of 0.5 µM.

B1: mouse CD200 extracellular region with C-terminal polyhistidine tag (ligand, UniProt O54901 31-232, looked up)
chain: QVEVVTQDERKALHTTASLRCSLKTSQEPLIVTWQKKKAVSPENMVTYSKTHGVVIQPAYKDRINVTELGLWNSSITFWNTTLEDEGCYMCLFNTFGSQKVSGTACLTLYVQPIVHLHYNYFEDHLNITCSATARPAPAISWKGTGTGIENSTESHFHSNGTTSVTSILRVKDPKTQVGKEVICQVLYLGNVIDYKQSLDKG
modifications: N-linked sugars cut back to N-acetyl-glucosamine by Endoglycosidase Hf (crystallised form); NH2 terminus presumably cyclized glutamine (pyroglutamic acid)
notes: signal peptide in the construct; mouse CD200, extracellular region (two Ig-like domains), residues 1-232 of NP_034948; the range counts on the precursor; Protein in the flow-through of the concanavalin A column was crystallised; protein eluted from the column was used as the soluble ligand in SPR; also called soluble CD200; recombinant CD200
For the molecule B1, the Kd was 1.1 µM and 0.9 µM in assay [5]; 0.6 µM in assay [6]; greater than 40 µM in [7]; 4.2 µM in [8]; 18.4 µM in assay [9].
